In article PMC2713044:

Molecular target: Hen egg white lysozyme (HEL) (UniProt P00698)
Test: isothermal titration calorimetry
Conditions: pH 8.0, 25.0 °C, no added salt (10 mM buffer only), 10 mM Tris

UniProt P00698, sequence (P00698 whole entry): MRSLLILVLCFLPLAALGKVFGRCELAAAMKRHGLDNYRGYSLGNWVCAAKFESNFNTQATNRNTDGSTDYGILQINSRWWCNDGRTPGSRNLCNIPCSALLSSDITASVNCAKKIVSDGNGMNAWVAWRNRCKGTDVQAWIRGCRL

“HyHEL-10 (HH10) monoclonal antibody, whole IgG1” was tested, and the ΔH was -20.5 kcal/mol.
